For two substances, Kd results are on record in article PMC5777259.

pKd: −log10 of the molar value.

Assay [1] deals with acto-NM-2B (filamentous β-actin with NM-2B–HMM) (human) (UniProt P60709). Kind of assay: co-sedimentation; 6:1 acto–Tpm mixture (6 μM β-actin, 1 μM Tpm) with 0–16 μM NM-2B–HMM, 30 min; 20 mM MOPS pH 7.0, 5 mM MgCl2, 50 mM KCl; pelleted 20 min at 100,000 × g; Hill fit.
For assay [2], the target named is filamentous β-actin (human) (UniProt P60709). Kind of assay: co-sedimentation; 10 μM β-actin preincubated with 0–10 μM Tpm for 30 min at room temperature; 20 mM MOPS pH 7.0, 5 mM MgCl2, 100 mM KCl; SDS-PAGE densitometry of supernatant and pellet; Hill fit, apparent constants (K50%).
The target of assay [3] is Tpm3.1-enveloped filamentous β-actin (human) (UniProt P60709). As to the kind of experiment: stopped-flow light scattering; 4 μM NM-2B0 mixed with 0.5–4 μM bare actin or actin-Tpm complex, light scattering at 405 nm; 20 °C; 20 mM MOPS pH 7.0, 100 mM KCl, 5 mM MgCl2; no nucleotide; k+A from the slope, k−A from the y intercept, KA = k−A/k+A.
In assay [4] the target is Tpm1.12-enveloped filamentous β-actin (human | rat) (UniProt P60709). The assay is described as above.

Take Tpm1.8cy (b.–.b.d) (natural protein): the pKd is greater than 7.00 in assay [1] and 7.00 in assay [2].

For the substance “single-headed construct NM-2B0 (motor domain of human NM-2B0, residues 1–782, two Dictyostelium discoideum α-actinin repeats, C-terminal octahistidine tag) (from UniProt P35580 1-782) (domain or fragment)”, the pKd in assay [3] was 7.52; in assay [4], 7.10.
